The record followed here is patent US20040092720A1 (US Dept. of Health and Human Services, published 2004).

B1: Peptide B29 (peptide)
peptide: VLLVRKFQNS
B2: Peptide B15 (peptide)
peptide: PRSTPSL
notes: also called PRSTPSL
B3: Peptide B16 (peptide)
peptide: PRSTPS
notes: also called PRSTPS
B4: Peptide B12 (peptide)
peptide: PRSTPSLTTK
B5: Peptide B14 (peptide)
peptide: PRSTPSLT
B6: Peptide B23 (peptide)
peptide: LTTKAVLLVRKFQNS
B7: Peptide B13 (peptide)
peptide: PRSTPSLTT
B8: Peptide B20 (peptide)
peptide: TPSLTTKAVLLVRKFQNS
B9: Peptide B30 (peptide)
peptide: LLVRKFQNS
B10: Peptide B24 (peptide)
peptide: TTKAVLLVRKFQNS
B11: Peptide B31 (peptide)
peptide: LVRKFQNS
B12: Peptide B10 (peptide)
peptide: PRSTPSLTTKAV
B13: Peptide B32 (peptide)
peptide: VRKFQNS
notes: also called VRKFQNS
B14: Peptide B28 (peptide)
peptide: AVLLVRKFQNS
B15: Peptide B19 (peptide)
peptide: STPSLTTKAVLLVRKFQNS
B16: Peptide B18 (peptide)
peptide: RSTPSLTTKAVLLVRKFQNS
B17: Peptide B21 (peptide)
peptide: PSLTTKAVLLVRKFQNS
B18: Peptide B11 (peptide)
peptide: PRSTPSLTTKA
B19: Peptide B27 (peptide)
peptide: KAVLLVRKFQNS
B20: Peptide E26 (peptide)
peptide: SVIILKYNIQYRTKDASTWSQIPP
B21: Peptide E29 (peptide)
peptide: RSSFTVQDLKPFTEYVFRIRCMKE
B22: Peptide E40 (peptide)
peptide: LTNDRYLATLTVRNLVGKSDAAVL
B23: Peptide E41 (peptide)
peptide: TVRNLVGKSDAAVLTIPACDFQAT
B24: Peptide E25 (peptide)
peptide: KLTWTNPSIKSVIILKYNIQYRTK
B25: Peptide E6 (peptide)
peptide: KEKCMDYFHVNANYIVWKTNHFTI
B26: Peptide E8 (peptide)
peptide: HFTIPKEQYTIINRTASSVTFTDI
B27: Peptide E21 (peptide)
peptide: ENALGKVTSDHINFDPVYKVKPNP
B28: Peptide E34 (peptide)
peptide: SFWYKIDPSHTQGYRTVQLVWKTL
B29: Peptide E17 (peptide)
peptide: KSEWATHKFADCKAKRDTPTSCTV
B30: Peptide E5 (peptide)
peptide: HSNFTAVCVLKEKCMDYFHVNANY
B31: Peptide E28 (peptide)
peptide: QIPPEDTASTRSSFTVQDLKPFTE
B32: Peptide E3 (peptide)
peptide: TGELLDPCGYISPESPVVQLHSNF
B33: Peptide E16 (peptide)
peptide: ETHLETNFTLKSEWATHKFADCKA
B34: Peptide E13 (peptide)
peptide: ISGLPPEKPKNLSCIVNEGKKMRC
B35: Peptide E7 (peptide)
peptide: NANYIVWKTNHFTIPKEQYTIINR
B36: Peptide E15 (peptide)
peptide: KMRCEWDGGRETHLETNFTLKSEW
B37: Peptide E39 (peptide)
peptide: TVNATKLTVNLTNDRYLATLTVRN
B38: Peptide E2 (peptide)
peptide: ALFIFLTTESTGELLDPCGYISPE
B39: Peptide E4 (peptide)
peptide: ISPESPVVQLHSNFTAVCVLKEKC
B40: Peptide E27 (peptide)
peptide: YRTKDASTWSQIPPEDTASTRSSF
B41: Peptide E31 (peptide)
peptide: CMKEDGKGYWSDWSEEASGITYED
B42: Peptide E36 (peptide)
peptide: WKTLPPFEANGKILDYEVTLTRWK
B43: Peptide E35 (peptide)
peptide: TQGYRTVQLVWKTLPPFEANGKIL
B44: Peptide E32 (peptide)
peptide: SDWSEEASGITYEDRPSKAPSFWY
B45: Peptide E10 (peptide)
peptide: FTDIASLNIQLTCNILTFGQLEQN
B46: Peptide E23 (peptide)
peptide: KPNPPHNLSVINSEELSSILKLTW
B47: Peptide E12 (peptide)
peptide: LEQNVYGITIISGLPPEKPKNLSC
B48: Peptide E20 (peptide)
peptide: FVNIEVWVEAENALGKVTSDHINF
B49: Peptide E37 (peptide)
peptide: GKILDYEVTLTRWKSHLQNYTVNA
B50: Peptide E38 (peptide)
peptide: TRWKSHLQNYTVNATKLTVNLTND
B51: Peptide E18 (peptide)
peptide: DCKAKRDTPTSCTVDYSTVYFVNI
B52: Peptide E22 (peptide)
peptide: HINFDPVYKVKPNPPHNLSVINSE
B53: Peptide E33 (peptide)
peptide: TYEDRPSKAPSFWYKIDPSHTQGY
B54: Peptide E19 (peptide)
peptide: SCTVDYSTVYFVNIEVWVEAENAL
B55: Peptide E9 (peptide)
peptide: IINRTASSVTFTDIASLNIQLTCN
B56: Peptide E30 (peptide)
peptide: PFTEYVFRIRCMKEDGKGYWSDWS
B57: Peptide E24 (peptide)
peptide: INSEELSSILKLTWTNPSIKSVII
B58: Peptide E1 (peptide)
peptide: MLTLQTWVVQALFIFLTTESTGEL
B59: Peptide E14 (peptide)
peptide: NLSCIVNEGKKMRCEWDGGRETHL

In one experiment the target is T1, recombinant human IL-6 (human, UniProt P05231 30-212, labeled with radioactive iodine).
T1 construct: Labeled probe in solution, added to wells that carry the synthetic peptides; also called IL-6 ligand; Interleukin-6
The experiment can be described thus: radioiodinated IL-6 on peptide array. The protocol:
Synthetic peptide arrays were constructed in 96-well microtiter plates in accordance with the method set forth in WO 91/02714 (Saxinger), and used to test the binding of recombinant human IL-6 that had been labeled with radioactive iodine (radiolabeling by standard methods). After incubating the radiolabeled IL-6 ligand in a well with each synthetic peptide, a washing step was performed to remove unbound label, and the relative level of radioactivity remaining in each well of the plate was evaluated to determine the relative affinity of each peptide for IL-6 ligand.
As for B1, the Counts/minute bound was 9100 counts/minute. Same read-out and setting: to B2 belongs 985 counts/minute; to B3, 1020 counts/minute. Consider B4, for which the Counts/minute bound was determined as 1310 counts/minute. On the same count and under the same terms, in the case of B5 it was 930 counts/minute. The same measure, in the same setting: in the case of B6 it was 12200 counts/minute.

In the case of B7, the Counts/minute bound was found to be 1050 counts/minute. The same measure, in the same setting: to B8 belongs 12900 counts/minute. Still for that read-out and setting: to B9 belongs 7200 counts/minute; to B10, 7010 counts/minute.

Consider B11, for which the Counts/minute bound stood at 2520 counts/minute. As for B12, the Counts/minute bound is 1220 counts/minute.

Regarding B13, the Counts/minute bound was determined as 1180 counts/minute.

For the molecule B14, the Counts/minute bound was determined as 9070 counts/minute. As for B15, the Counts/minute bound stood at 12200 counts/minute. Still for that read-out and setting: to B16 belongs 13000 counts/minute; to B17, 13300 counts/minute; to B18, 1240 counts/minute.

For B19, the Counts/minute bound came to 5600 counts/minute.

The next experiment has as its target T1, recombinant human IL-6. The experiment in a line: radioiodinated IL-6 on peptide array. The source holds these as a separate data set.
Consider B20, for which the Counts/minute bound stood at 2830 counts/minute. As to B21, the Counts/minute bound was 1320 counts/minute. Still for that read-out and setting: in the case of B22 it was 4800 counts/minute; in that of B23, 1100 counts/minute; in that of B24, 10300 counts/minute. Take B25: the Counts/minute bound is 1440 counts/minute. Still for that read-out and setting: in the case of B26 it was 1140 counts/minute; in that of B27, 1120 counts/minute.

For the molecule B28, the Counts/minute bound was 1140 counts/minute.

Regarding B29, the Counts/minute bound worked out at 1410 counts/minute. The same measure, in the same setting: to B30 belongs 1290 counts/minute. B31: the Counts/minute bound was 1200 counts/minute.

For the molecule B32, the Counts/minute bound came out at 1300 counts/minute. The same measure, in the same setting: in the case of B33 it was 1040 counts/minute. For the molecule B34, the Counts/minute bound came to 1200 counts/minute. As for B35, the Counts/minute bound was found to be 1330 counts/minute.

Consider B36, for which the Counts/minute bound is 1570 counts/minute. Same read-out and setting: to B37 belongs 4360 counts/minute. B38: the Counts/minute bound is 1530 counts/minute. As to B39, the Counts/minute bound was found to be 1500 counts/minute. As for B40, the Counts/minute bound was 1160 counts/minute. Still for that read-out and setting: to B41 belongs 1730 counts/minute; to B42, 1460 counts/minute; to B43, 1170 counts/minute. As to B44, the Counts/minute bound is 1160 counts/minute. On to B45, for which the Counts/minute bound worked out at 3380 counts/minute. Consider B46, for which the Counts/minute bound is 1410 counts/minute. On the same count and under the same terms, in the case of B47 it was 1670 counts/minute. For the molecule B48, the Counts/minute bound is 1410 counts/minute. The same measure, in the same setting: to B49 belongs 1790 counts/minute; to B50, 3650 counts/minute. Still for that read-out and setting: in the case of B51 it was 1550 counts/minute. Still for that read-out and setting: in the case of B52 it was 1730 counts/minute.

For the molecule B53, the Counts/minute bound worked out at 1220 counts/minute. Same read-out and setting: in the case of B54 it was 3320 counts/minute; in that of B55, 1630 counts/minute. Same read-out and setting: to B56 belongs 1260 counts/minute; to B57, 1010 counts/minute; to B58, 3360 counts/minute. Same read-out and setting: to B59 belongs 1170 counts/minute.
